Test results as given in patent US20150093398A1, “Methods and Compositions for Treating or Preventing Cancer” (MERCK SHARP & DOHME CORP., priority 2005, published 2015).

Tested on: SJSA-1 osteosarcoma cells
Assay: SJSA-1 osteosarcoma xenograft model (05-IGFR-12), dosing from day 18 post inoculation
Assay type: in vivo, female nude mouse (strain NU/NU)
Protocol: About 7 million SJSA-1 osteosarcoma cells were inoculated subcutaneously to the flank of each female nude mouse (strain NU/NU from Charles River, age ˜6 wks-old, average weight ˜20 gram). For the experiment set forth in Table 8, dosing was initiated on day 18 post inoculation, when the xenograft tumor reached an average size of about 100 mm^3. Anti-IGF1R antibody (19D12 Light chain F/Heavy chain A (as set forth above)) was given ip twice a week at the dose of either 0.02 mg, 0.1 and 0.5 mg per mouse, while cytotoxic Cytoxan (cyclophosphamide) was given ip twice per week at the dose of 100 mpk for a total of 3 injection during the course of the study. Xenograft tumor size was measured twice per week with a caliper and captured electronically by the LabCat program.

B1: 19D12: anti-IGF1R antibody: light chain variable region amino acids 20-128 of SEQ ID NO: 8, heavy chain variable region amino acids 20-137 of SEQ ID NO: 10 (antibody, V domains shown)
VL: MSPSQLIGFLLLWVPASRGEIVLTQSPGTLSVSPGERATLSCRASQSIGSSLHWYQQKPGQAPRLLIKYASQSLSGIPDRFSGSGSGTDFTLTISRLEPEDFAVYYCHQSSRLPHTFGQGTKVEIKRT
VH: MEFGLSWVFLVAILKGVQCEVQLVQSGGGLVKPGGSLRLSCAASGFTFSSFAMHWVRQAPGKGLEWISVIDTRGATYYADSVKGRFTISRDNAKNSLYLQMNSLRAEDTAVYYCARLGNFYYGMDVWGQGTTVTVSS
modifications: variable regions only: LC 20-128, HC 20-137; constant regions lack entries
Mean Tumor size (0.02 mg 19D12, Day 0): 98 mm3
Mean Tumor size (0.02 mg 19D12, Day 3): 121 mm3
Mean Tumor size (0.02 mg 19D12, Day 7): 197 mm3
Mean Tumor size (0.02 mg 19D12, Day 10): 272 mm3
Mean Tumor size (0.02 mg 19D12, Day 14): 423 mm3
Mean Tumor size (0.02 mg 19D12, Day 17): 675 mm3
Mean Tumor size (0.1 mg 19D12, Day 0): 96 mm3
Mean Tumor size (0.1 mg 19D12, Day 3): 121 mm3
Mean Tumor size (0.1 mg 19D12, Day 7): 144 mm3
Mean Tumor size (0.1 mg 19D12, Day 10): 231 mm3
Mean Tumor size (0.1 mg 19D12, Day 14): 378 mm3
Mean Tumor size (0.1 mg 19D12, Day 17): 431 mm3
Mean Tumor size (0.1 mg 19D12, Day 21): 1037 mm3
Mean Tumor size (0.5 mg 19D12, Day 0): 96 mm3
Mean Tumor size (0.5 mg 19D12, Day 3): 103 mm3
Mean Tumor size (0.5 mg 19D12, Day 7): 122 mm3
Mean Tumor size (0.5 mg 19D12, Day 10): 115 mm3
Mean Tumor size (0.5 mg 19D12, Day 14): 282 mm3
Mean Tumor size (0.5 mg 19D12, Day 17): 435 mm3
Mean Tumor size (0.5 mg 19D12, Day 21): 890 mm3
growth inhibition of the osteosarcoma tumor (in words) (ip twice a week, 0.02, 0.1 or 0.5 mg per mouse, summary of Table 8): marked anti-IGF1R-dependent growth inhibition
